Test results published in US20160137728A1.

Molecular target: T1, Thermus thermophilus wild type SlyD polypeptide (Thermus thermophilus)
T1 sequence: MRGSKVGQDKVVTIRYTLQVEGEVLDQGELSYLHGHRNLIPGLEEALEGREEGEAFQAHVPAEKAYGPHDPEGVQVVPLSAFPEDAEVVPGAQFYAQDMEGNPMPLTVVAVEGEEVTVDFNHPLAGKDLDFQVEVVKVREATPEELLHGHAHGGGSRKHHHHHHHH
Experiment: ELISA, clone culture supernatant

B1: MAb<h-IGF-1>M-11.09.15 (antibody, V domains shown)
VH: QVQLQQSGAELVRPGSSVKISCKASGYAFSNLWMNWVKQRPGQGLEWIGQIYPGDGDTNYYGDFKGKATLTADSSSSTAYMQLSRLTSEDSAVYFCARIGYYGMDYWGQGTSVTVSS
VL: DVVLTQTPLSLPVNIGDEASISCKSTKSLLSSDGLTYLDWYLQKPGQSPQVLIYLVSNRFSGVPDRFSGSGSGTDFTLKISRVEAEDLGVYYCFQSNYLPTFGAGTKLELK
- reactivity [mE]: 32 mE
